# Test results taken from patent US20140087995A1 (published 2014).
# Numbered stars: 1 amine (or outer) side, 2 acyl side, 3 side chain; on linkers, the order of the positions; unused ones are H or OH. Bridge positions count the residues as written; N and C are the ends. Side chains are listed from the residue outwards. Ends that are not written are not given here. * marks the point of attachment. C20 diacid = O=C(O)CCCCCCCCCCCCCCCCCCC(=O)*; γGlu = O=C(O)[C@H](CCC(=O)[*:2])N[*:1]; AEEA = NCCOCCOCC(=O)O
# T1: human calcitonin receptor (human, UniProt P30988 25-474)
# T1 sequence (looked up): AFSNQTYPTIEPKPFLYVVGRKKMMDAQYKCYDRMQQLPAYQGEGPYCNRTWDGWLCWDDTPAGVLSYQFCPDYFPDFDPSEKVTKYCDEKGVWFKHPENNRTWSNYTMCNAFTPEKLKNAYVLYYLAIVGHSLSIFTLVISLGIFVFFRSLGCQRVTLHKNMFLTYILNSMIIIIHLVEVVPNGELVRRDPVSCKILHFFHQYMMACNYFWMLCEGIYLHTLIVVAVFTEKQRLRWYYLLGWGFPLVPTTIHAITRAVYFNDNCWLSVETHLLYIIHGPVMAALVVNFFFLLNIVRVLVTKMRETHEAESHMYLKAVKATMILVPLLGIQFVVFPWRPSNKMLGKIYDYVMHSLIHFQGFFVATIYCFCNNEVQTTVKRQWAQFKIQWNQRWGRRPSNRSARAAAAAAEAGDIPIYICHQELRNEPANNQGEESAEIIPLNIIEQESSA
# B1: N^ε1-[2-[2-[2-[[(4S)-4-carboxy-4-(19-carboxynonadecanoylamino)butanoyl]amino]ethoxy]ethoxy]acetyl]-[Arg17,Pro21,Pro27,Pro31]-h-amylin (peptide)
# peptide: K([AEEA-γGlu-C20 diacid])CNTATCATQRLANFLRHSSPNFGAIPSSTPVGSNTY-NH2
# modifications: disulfide 2-7; N-terminus assumed
# SMILES: CC[C@H](C)[C@H](NC(=O)[C@H](C)NC(=O)CNC(=O)[C@H](Cc1ccccc1)NC(=O)[C@H](CC(N)=O)NC(=O)[C@@H]1CCCN1C(=O)[C@H](CO)NC(=O)[C@H](CO)NC(=O)[C@H](Cc1c[nH]cn1)NC(=O)[C@H](CCCNC(=N)N)NC(=O)[C@H](CC(C)C)NC(=O)[C@H](Cc1ccccc1)NC(=O)[C@H](CC(N)=O)NC(=O)[C@H](C)NC(=O)[C@H](CC(C)C)NC(=O)[C@H](CCCNC(=N)N)NC(=O)[C@H](CCC(N)=O)NC(=O)[C@@H](NC(=O)[C@H](C)NC(=O)[C@@H]1CSSC[C@H](NC(=O)[C@@H](N)CCCCNC(=O)COCCOCCNC(=O)CC[C@H](NC(=O)CCCCCCCCCCCCCCCCCCC(=O)O)C(=O)O)C(=O)N[C@@H](CC(N)=O)C(=O)N[C@@H]([C@@H](C)O)C(=O)N[C@@H](C)C(=O)N[C@@H]([C@@H](C)O)C(=O)N1)[C@@H](C)O)C(=O)N1CCC[C@H]1C(=O)N[C@@H](CO)C(=O)N[C@@H](CO)C(=O)N[C@H](C(=O)N1CCC[C@H]1C(=O)N[C@H](C(=O)NCC(=O)N[C@@H](CO)C(=O)N[C@@H](CC(N)=O)C(=O)N[C@H](C(=O)N[C@@H](Cc1ccc(O)cc1)C(N)=O)[C@@H](C)O)C(C)C)[C@@H](C)O
# notes: h-amylin derivative; disulfide bridge and C-terminal amide as told for human amylin; also called compound 49
# B2: N^ε1-[2-[2-[2-[[(4S)-4-carboxy-4-(19-carboxynonadecanoylamino)butanoyl]amino]ethoxy]ethoxy]acetyl]-[Arg17,Pro21,Pro27,Pro34]-h-amylin (peptide)
# peptide: K([AEEA-γGlu-C20 diacid])CNTATCATQRLANFLRHSSPNFGAIPSSTNVGPNTY-NH2
# modifications: disulfide 2-7; N-terminus assumed
# SMILES: CC[C@H](C)[C@H](NC(=O)[C@H](C)NC(=O)CNC(=O)[C@H](Cc1ccccc1)NC(=O)[C@H](CC(N)=O)NC(=O)[C@@H]1CCCN1C(=O)[C@H](CO)NC(=O)[C@H](CO)NC(=O)[C@H](Cc1c[nH]cn1)NC(=O)[C@H](CCCNC(=N)N)NC(=O)[C@H](CC(C)C)NC(=O)[C@H](Cc1ccccc1)NC(=O)[C@H](CC(N)=O)NC(=O)[C@H](C)NC(=O)[C@H](CC(C)C)NC(=O)[C@H](CCCNC(=N)N)NC(=O)[C@H](CCC(N)=O)NC(=O)[C@@H](NC(=O)[C@H](C)NC(=O)[C@@H]1CSSC[C@H](NC(=O)[C@@H](N)CCCCNC(=O)COCCOCCNC(=O)CC[C@H](NC(=O)CCCCCCCCCCCCCCCCCCC(=O)O)C(=O)O)C(=O)N[C@@H](CC(N)=O)C(=O)N[C@@H]([C@@H](C)O)C(=O)N[C@@H](C)C(=O)N[C@@H]([C@@H](C)O)C(=O)N1)[C@@H](C)O)C(=O)N1CCC[C@H]1C(=O)N[C@@H](CO)C(=O)N[C@@H](CO)C(=O)N[C@H](C(=O)N[C@@H](CC(N)=O)C(=O)N[C@H](C(=O)NCC(=O)N1CCC[C@H]1C(=O)N[C@@H](CC(N)=O)C(=O)N[C@H](C(=O)N[C@@H](Cc1ccc(O)cc1)C(N)=O)[C@@H](C)O)C(C)C)[C@@H](C)O
# notes: h-amylin derivative; disulfide bridge and C-terminal amide as told for human amylin; also called compound 50
# B3: N^ε1-[(4S)-4-carboxy-4-(19-carboxynonadecanoylamino)butanoyl]-[Arg17,Pro21,Pro27,Glu35]-h-amylin (peptide)
# peptide: K([γGlu-C20 diacid])CNTATCATQRLANFLRHSSPNFGAIPSSTNVGSETY-NH2
# modifications: disulfide 2-7; N-terminus assumed
# SMILES: CC[C@H](C)[C@H](NC(=O)[C@H](C)NC(=O)CNC(=O)[C@H](Cc1ccccc1)NC(=O)[C@H](CC(N)=O)NC(=O)[C@@H]1CCCN1C(=O)[C@H](CO)NC(=O)[C@H](CO)NC(=O)[C@H](Cc1c[nH]cn1)NC(=O)[C@H](CCCNC(=N)N)NC(=O)[C@H](CC(C)C)NC(=O)[C@H](Cc1ccccc1)NC(=O)[C@H](CC(N)=O)NC(=O)[C@H](C)NC(=O)[C@H](CC(C)C)NC(=O)[C@H](CCCNC(=N)N)NC(=O)[C@H](CCC(N)=O)NC(=O)[C@@H](NC(=O)[C@H](C)NC(=O)[C@@H]1CSSC[C@H](NC(=O)[C@@H](N)CCCCNC(=O)CC[C@H](NC(=O)CCCCCCCCCCCCCCCCCCC(=O)O)C(=O)O)C(=O)N[C@@H](CC(N)=O)C(=O)N[C@@H]([C@@H](C)O)C(=O)N[C@@H](C)C(=O)N[C@@H]([C@@H](C)O)C(=O)N1)[C@@H](C)O)C(=O)N1CCC[C@H]1C(=O)N[C@@H](CO)C(=O)N[C@@H](CO)C(=O)N[C@H](C(=O)N[C@@H](CC(N)=O)C(=O)N[C@H](C(=O)NCC(=O)N[C@@H](CO)C(=O)N[C@@H](CCC(=O)O)C(=O)N[C@H](C(=O)N[C@@H](Cc1ccc(O)cc1)C(N)=O)[C@@H](C)O)C(C)C)[C@@H](C)O
# notes: h-amylin derivative; disulfide bridge and C-terminal amide as told for human amylin; also called compound 27
# B4: N^ε1-[(4S)-4-carboxy-4-[[(4S)-4-carboxy-4-(19-carboxynonadecanoylamino)butanoyl]amino]butanoyl]-[Asp14,Arg17,Pro21,Pro27,Arg35]-h-amylin (peptide)
# peptide: K([γGlu-γGlu-C20 diacid])CNTATCATQRLADFLRHSSPNFGAIPSSTNVGSRTY-NH2
# modifications: disulfide 2-7; N-terminus assumed
# SMILES: CC[C@H](C)[C@H](NC(=O)[C@H](C)NC(=O)CNC(=O)[C@H](Cc1ccccc1)NC(=O)[C@H](CC(N)=O)NC(=O)[C@@H]1CCCN1C(=O)[C@H](CO)NC(=O)[C@H](CO)NC(=O)[C@H](Cc1c[nH]cn1)NC(=O)[C@H](CCCNC(=N)N)NC(=O)[C@H](CC(C)C)NC(=O)[C@H](Cc1ccccc1)NC(=O)[C@H](CC(=O)O)NC(=O)[C@H](C)NC(=O)[C@H](CC(C)C)NC(=O)[C@H](CCCNC(=N)N)NC(=O)[C@H](CCC(N)=O)NC(=O)[C@@H](NC(=O)[C@H](C)NC(=O)[C@@H]1CSSC[C@H](NC(=O)[C@@H](N)CCCCNC(=O)CC[C@H](NC(=O)CC[C@H](NC(=O)CCCCCCCCCCCCCCCCCCC(=O)O)C(=O)O)C(=O)O)C(=O)N[C@@H](CC(N)=O)C(=O)N[C@@H]([C@@H](C)O)C(=O)N[C@@H](C)C(=O)N[C@@H]([C@@H](C)O)C(=O)N1)[C@@H](C)O)C(=O)N1CCC[C@H]1C(=O)N[C@@H](CO)C(=O)N[C@@H](CO)C(=O)N[C@H](C(=O)N[C@@H](CC(N)=O)C(=O)N[C@H](C(=O)NCC(=O)N[C@@H](CO)C(=O)N[C@@H](CCCNC(=N)N)C(=O)N[C@H](C(=O)N[C@@H](Cc1ccc(O)cc1)C(N)=O)[C@@H](C)O)C(C)C)[C@@H](C)O
# notes: h-amylin derivative; disulfide bridge and C-terminal amide as told for human amylin; also called compound 52
# B5: N^ε1-[(4S)-4-carboxy-4-(19-carboxynonadecanoylamino)butanoyl]-[Arg17,Pro21,Pro27,Lys35]-h-amylin (peptide)
# peptide: K([γGlu-C20 diacid])CNTATCATQRLANFLRHSSPNFGAIPSSTNVGSKTY-NH2
# modifications: disulfide 2-7; N-terminus assumed
# SMILES: CC[C@H](C)[C@H](NC(=O)[C@H](C)NC(=O)CNC(=O)[C@H](Cc1ccccc1)NC(=O)[C@H](CC(N)=O)NC(=O)[C@@H]1CCCN1C(=O)[C@H](CO)NC(=O)[C@H](CO)NC(=O)[C@H](Cc1c[nH]cn1)NC(=O)[C@H](CCCNC(=N)N)NC(=O)[C@H](CC(C)C)NC(=O)[C@H](Cc1ccccc1)NC(=O)[C@H](CC(N)=O)NC(=O)[C@H](C)NC(=O)[C@H](CC(C)C)NC(=O)[C@H](CCCNC(=N)N)NC(=O)[C@H](CCC(N)=O)NC(=O)[C@@H](NC(=O)[C@H](C)NC(=O)[C@@H]1CSSC[C@H](NC(=O)[C@@H](N)CCCCNC(=O)CC[C@H](NC(=O)CCCCCCCCCCCCCCCCCCC(=O)O)C(=O)O)C(=O)N[C@@H](CC(N)=O)C(=O)N[C@@H]([C@@H](C)O)C(=O)N[C@@H](C)C(=O)N[C@@H]([C@@H](C)O)C(=O)N1)[C@@H](C)O)C(=O)N1CCC[C@H]1C(=O)N[C@@H](CO)C(=O)N[C@@H](CO)C(=O)N[C@H](C(=O)N[C@@H](CC(N)=O)C(=O)N[C@H](C(=O)NCC(=O)N[C@@H](CO)C(=O)N[C@@H](CCCCN)C(=O)N[C@H](C(=O)N[C@@H](Cc1ccc(O)cc1)C(N)=O)[C@@H](C)O)C(C)C)[C@@H](C)O
# notes: h-amylin derivative; disulfide bridge and C-terminal amide as told for human amylin; also called compound 35
# B6: N^ε1-[(4S)-4-carboxy-4-[[(4S)-4-carboxy-4-(19-carboxynonadecanoylamino)butanoyl]amino]butanoyl]-[Asp14,Arg17,Pro21,Pro27,Asp35]-h-amylin (peptide)
# peptide: K([γGlu-γGlu-C20 diacid])CNTATCATQRLADFLRHSSPNFGAIPSSTNVGSDTY-NH2
# modifications: disulfide 2-7; N-terminus assumed
# SMILES: CC[C@H](C)[C@H](NC(=O)[C@H](C)NC(=O)CNC(=O)[C@H](Cc1ccccc1)NC(=O)[C@H](CC(N)=O)NC(=O)[C@@H]1CCCN1C(=O)[C@H](CO)NC(=O)[C@H](CO)NC(=O)[C@H](Cc1c[nH]cn1)NC(=O)[C@H](CCCNC(=N)N)NC(=O)[C@H](CC(C)C)NC(=O)[C@H](Cc1ccccc1)NC(=O)[C@H](CC(=O)O)NC(=O)[C@H](C)NC(=O)[C@H](CC(C)C)NC(=O)[C@H](CCCNC(=N)N)NC(=O)[C@H](CCC(N)=O)NC(=O)[C@@H](NC(=O)[C@H](C)NC(=O)[C@@H]1CSSC[C@H](NC(=O)[C@@H](N)CCCCNC(=O)CC[C@H](NC(=O)CC[C@H](NC(=O)CCCCCCCCCCCCCCCCCCC(=O)O)C(=O)O)C(=O)O)C(=O)N[C@@H](CC(N)=O)C(=O)N[C@@H]([C@@H](C)O)C(=O)N[C@@H](C)C(=O)N[C@@H]([C@@H](C)O)C(=O)N1)[C@@H](C)O)C(=O)N1CCC[C@H]1C(=O)N[C@@H](CO)C(=O)N[C@@H](CO)C(=O)N[C@H](C(=O)N[C@@H](CC(N)=O)C(=O)N[C@H](C(=O)NCC(=O)N[C@@H](CO)C(=O)N[C@@H](CC(=O)O)C(=O)N[C@H](C(=O)N[C@@H](Cc1ccc(O)cc1)C(N)=O)[C@@H](C)O)C(C)C)[C@@H](C)O
# notes: h-amylin derivative; disulfide bridge and C-terminal amide as told for human amylin; also called compound 2
# Target: T1, human calcitonin receptor
# Assay: cell-based or functional assay
row,Binder,hCTR funct. EC50 [nM]
1,B1,2.39
2,B2,0.662
3,B3,3
4,B4,14.1
5,B5,5.46
6,B6,3
